Patent US20210238260A1

Assays:
[1] = molecular target: Antithrombin III (ATIII) (human) (UniProt P01008); experiment: inhibition of FIXa by ATIII, residual FIXa activity; heparin not given
[2] = molecular target: antithrombin III (plasma purified human AT-III), in complex with unfractionated heparin (human) (UniProt P01008); experiment: AT-III/UFH inhibition of FIXa; residual activity on Pefafluor FIXa substrate, varied incubation time
[3] = molecular target: plasma purified human antithrombin III (AT-III), in complex with unfractionated heparin (UFH) (human) (UniProt P01008); experiment: inhibition of FIXa by AT-III/UFH, residual activity on Mesyl-D-CHG-Gly-Arg-AMC, pseudo-first-order

| Substance | kapp (apparent second-order rate constant for inhibition) [2] | kapp (apparent second-order rate constant for inhibition) [3] | other results |
| --- | --- | --- | --- |
| BeneFIX Coagulation Factor IX (Recombinant) (activated, FIXa) (from UniProt P00740 47-191; P00740 227-461) (enzyme) | – | – | ATIII Kapp (second-order rate constant of inhibition) [1]: 1.6e+07 M⁻¹ s⁻¹ |
| FIX of SEQ ID NO: 394, with the replacements R318Y/R338E/T343R (activated, FIXa) (from UniProt P00740 47-191; P00740 227-461) (enzyme) | – | – | ATIII Kapp (second-order rate constant of inhibition) [1]: 1.1e+06 M⁻¹ s⁻¹ |
| FIXa N346Y (from UniProt P00740 47-191; P00740 227-461) (enzyme) | 840000 M⁻¹ s⁻¹ | – | – |
| FIXa R318Y/R338E (from UniProt P00740 47-191; P00740 227-461) (enzyme) | 620000 M⁻¹ s⁻¹ | – | – |
| FIXa R318Y/R338E/R403E/E410S (from UniProt P00740 47-191; P00740 227-461) (enzyme) | 1600 M⁻¹ s⁻¹ | – | – |
| FIXa R318Y/R403E/E410N (from UniProt P00740 47-191; P00740 227-461) (enzyme) | 28000 M⁻¹ s⁻¹ | – | – |
| FIXa T343Q (from UniProt P00740 47-191; P00740 227-461) (enzyme) | 2.1e+06 M⁻¹ s⁻¹ | – | – |
| FIXa T343R (from UniProt P00740 47-191; P00740 227-461) (enzyme) | 4.2e+06 M⁻¹ s⁻¹ | – | – |
| FIXa T343R/Y345T (from UniProt P00740 47-191; P00740 227-461) (enzyme) | 5e+06 M⁻¹ s⁻¹ | – | – |
| FIXa Y155F/K228N/R318Y/R338E/R403E/E410N (from UniProt P00740 47-191; P00740 227-461) (enzyme) | 4600 M⁻¹ s⁻¹ | – | – |
| FIXa Y155F/K247N/N249S/R318Y/R338E/E410N (from UniProt P00740 47-191; P00740 227-461) (enzyme) | 180000 M⁻¹ s⁻¹ | – | – |
| FIXa Y155F/K247N/N249S/R318Y/R338E/R403E/E410N (from UniProt P00740 47-191; P00740 227-461) (enzyme) | 1600 M⁻¹ s⁻¹ | – | – |
| FIXa Y155F/N346D (from UniProt P00740 47-191; P00740 227-461) (enzyme) | 4e+06 M⁻¹ s⁻¹ | – | – |
| FIXa Y155F/R318Y/R338E/E410N (from UniProt P00740 47-191; P00740 227-461) (enzyme) | 450000 M⁻¹ s⁻¹ | – | – |
| FIXa Y155F/R318Y/R403E/E410N (from UniProt P00740 47-191; P00740 227-461) (enzyme) | 8100 M⁻¹ s⁻¹ | – | – |
| FIXa Y345T (from UniProt P00740 47-191; P00740 227-461) (enzyme) | 1.8e+06 M⁻¹ s⁻¹ | – | – |
| FIXa-K228N/K247N/N249S/R318Y/R338E/T343R/E410N (from UniProt P00740 47-191; P00740 227-461) (enzyme) | – | 630000 M⁻¹ s⁻¹ | – |
| FIXa-K228N/K247N/N249S/R318Y/R338E/T343R/R403E (from UniProt P00740 47-191; P00740 227-461) (enzyme) | – | 1000 M⁻¹ s⁻¹ | – |
| FIXa-K228N/K247N/N249S/R318Y/T343R/R403E/E410N (from UniProt P00740 47-191; P00740 227-461) (enzyme) | – | 17000 M⁻¹ s⁻¹ | – |
| FIXa-K228N/R318Y/R338E/T343R/R403E/E410N (from UniProt P00740 47-191; P00740 227-461) (enzyme) | – | 7100 M⁻¹ s⁻¹ | – |
| FIXa-K247N/N249S/R318Y/R338E/T343R (from UniProt P00740 47-191; P00740 227-461) (enzyme) | – | 320000 M⁻¹ s⁻¹ | – |
| FIXa-K247N/N249S/R318Y/R338E/T343R/E410N (from UniProt P00740 47-191; P00740 227-461) (enzyme) | – | 210000 M⁻¹ s⁻¹ | – |

| Substance | kapp (apparent second-order rate constant for inhibition) [2] | kapp (apparent second-order rate constant for inhibition) [3] | other results |
| --- | --- | --- | --- |
| FIXa-K247N/N249S/R318Y/T343R/E410N (from UniProt P00740 47-191; P00740 227-461) (enzyme) | – | 49000 M⁻¹ s⁻¹ | – |
| FIXa-K247N/N249S/R318Y/T343R/R403E (from UniProt P00740 47-191; P00740 227-461) (enzyme) | – | 9800 M⁻¹ s⁻¹ | – |
| FIXa-K247N/N249S/R318Y/T343R/R403E/E410N (from UniProt P00740 47-191; P00740 227-461) (enzyme) | – | 25000 M⁻¹ s⁻¹ | – |
| FIXa-K247N/N249S/R338E/T343R/E410N (from UniProt P00740 47-191; P00740 227-461) (enzyme) | – | 1.4e+07 M⁻¹ s⁻¹ | – |
| FIXa-K247N/N249S/R338E/T343R/R403E (from UniProt P00740 47-191; P00740 227-461) (enzyme) | – | 50000 M⁻¹ s⁻¹ | – |
| FIXa-R318Y/R338E/T343R (from UniProt P00740 47-191; P00740 227-461) (enzyme) | – | 1.8e+06 M⁻¹ s⁻¹ | – |
| FIXa-R318Y/T343R/E410N (from UniProt P00740 47-191; P00740 227-461) (enzyme) | – | 1.2e+06 M⁻¹ s⁻¹ | – |
| FIXa-R338E/T343R/E410N (from UniProt P00740 47-191; P00740 227-461) (enzyme) | – | 2e+07 M⁻¹ s⁻¹ | – |
| FIXa-Y155F/K247N/N249S/R318Y/R338E/T343R (from UniProt P00740 47-191; P00740 227-461) (enzyme) | – | 370000 M⁻¹ s⁻¹ | – |
| FIXa-Y155F/K247N/N249S/R318Y/T343R/E410N (from UniProt P00740 47-191; P00740 227-461) (enzyme) | – | 360000 M⁻¹ s⁻¹ | – |
| FIXa-Y155F/K247N/N249S/R318Y/T343R/R403E (from UniProt P00740 47-191; P00740 227-461) (enzyme) | – | 12000 M⁻¹ s⁻¹ | – |
| FIXa-Y155F/K247N/N249S/R318Y/T343R/R403E/E410N (from UniProt P00740 47-191; P00740 227-461) (enzyme) | – | 28000 M⁻¹ s⁻¹ | – |
| FIXa-Y155F/K247N/N249S/R338E/E410N (from UniProt P00740 47-191; P00740 227-461) (enzyme) | – | 2.9e+06 M⁻¹ s⁻¹ | – |
| FIXa-Y155F/K247N/N249S/R338E/T343R/R403E (from UniProt P00740 47-191; P00740 227-461) (enzyme) | – | 44000 M⁻¹ s⁻¹ | – |
| FIXa-Y155F/K247N/N249S/R403E/E410N (from UniProt P00740 47-191; P00740 227-461) (enzyme) | – | 130000 M⁻¹ s⁻¹ | – |
| FIXa-Y155F/K247N/N249S/T343R/R403E/E410N (from UniProt P00740 47-191; P00740 227-461) (enzyme) | – | 620000 M⁻¹ s⁻¹ | – |
| FIXa-Y155F/R318Y/T343R/E410N (from UniProt P00740 47-191; P00740 227-461) (enzyme) | – | 200000 M⁻¹ s⁻¹ | – |
| FIXa-Y155F/R318Y/T343R/R403E (from UniProt P00740 47-191; P00740 227-461) (enzyme) | – | 11000 M⁻¹ s⁻¹ | – |
| FIXa-Y155F/R338E/T343R/E410N (from UniProt P00740 47-191; P00740 227-461) (enzyme) | – | 1.3e+07 M⁻¹ s⁻¹ | – |
| FIXa-Y155F/T343R/R403E/E410N (from UniProt P00740 47-191; P00740 227-461) (enzyme) | – | 880000 M⁻¹ s⁻¹ | – |
| WT-recombinant FIX (native amino-acid sequence, made in the Sponsor's laboratory; activated, FIXa) (from UniProt P00740 47-191; P00740 227-461) (enzyme) | – | – | ATIII Kapp (second-order rate constant of inhibition) [1]: 2.4e+07 M⁻¹ s⁻¹ |
